In publication doi:10.1101/2025.10.17.682828:
Read-outs that look alike come from different tables or passages of the source.

Tests used:
Human HSP90β (human) [1] = target: Human HSP90β (human) (UniProt P08238); experiment: cryo-EM structure
Human HSP90β (human) [2] = target: Human HSP90β (human) (UniProt P08238); experiment: cryo-EM structure; remark: listed apart in the source

Human HSP90β, P08238 3-724 (natural protein; other documents disagree on this pair), sequence (P08238 3-724): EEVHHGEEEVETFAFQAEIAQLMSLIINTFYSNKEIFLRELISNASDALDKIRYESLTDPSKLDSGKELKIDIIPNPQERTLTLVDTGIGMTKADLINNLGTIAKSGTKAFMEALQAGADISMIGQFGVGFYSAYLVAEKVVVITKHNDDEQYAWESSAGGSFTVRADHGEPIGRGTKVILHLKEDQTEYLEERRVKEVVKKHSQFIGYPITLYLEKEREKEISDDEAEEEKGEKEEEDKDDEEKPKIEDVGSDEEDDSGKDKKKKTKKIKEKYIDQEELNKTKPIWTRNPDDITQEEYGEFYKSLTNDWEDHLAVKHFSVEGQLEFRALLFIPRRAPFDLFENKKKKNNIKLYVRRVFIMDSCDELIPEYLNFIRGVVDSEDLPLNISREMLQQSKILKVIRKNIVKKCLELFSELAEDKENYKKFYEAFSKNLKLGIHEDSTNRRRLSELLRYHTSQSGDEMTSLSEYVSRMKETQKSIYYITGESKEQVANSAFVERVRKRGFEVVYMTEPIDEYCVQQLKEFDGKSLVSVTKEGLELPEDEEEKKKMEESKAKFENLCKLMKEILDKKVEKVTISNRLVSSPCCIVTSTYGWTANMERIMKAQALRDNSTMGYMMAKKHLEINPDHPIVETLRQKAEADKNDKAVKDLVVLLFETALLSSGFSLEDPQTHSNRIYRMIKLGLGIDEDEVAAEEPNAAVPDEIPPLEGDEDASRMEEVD

Substance: Human HSP90β, P08238 3-724 (natural protein; other documents disagree on this pair)
- stoichiometry N (Human HSP90β (human) [1]): 2
- stoichiometry N (Human HSP90β (human) [2]): 2
